Experimental findings from publication PMC5414002 (mBio, 2017) are described below.

The data set concerns the molecule itself. The data set is described as follows: cryo-EM structure; EcFtsZ filaments, 0.5 mg/ml in 50 mM HEPES-KOH, 100 mM potassium acetate, 5 mM magnesium acetate, pH 7.7, 20°C, 0.1 mM GMPCPP; helical reconstruction in RELION.

B1: Full-length, untagged wild-type Escherichia coli FtsZ (natural protein, UniProt P0A9A6 1-383, looked up)
chain: MFEPMELTNDAVIKVIGVGGGGGNAVEHMVRERIEGVEFFAVNTDAQALRKTAVGQTIQIGSGITKGLGAGANPEVGRNAADEDRDALRAALEGADMVFIAAGMGGGTGTGAAPVVAEVAKDLGILTVAVVTKPFNFEGKKRMAFAEQGITELSKHVDSLITIPNDKLLKVLGRGISLLDAFGAANDVLKGAVQGIAELITRPGLMNVDFADVRTVMSEMGYAMMGSGVASGEDRAEEAAEMAISSPLLEDIDLSGARGVLVNITAGFDLRLDEFETVGNTIRAFASDNATVVIGTSLDPDMNDELRVTVVATGIGMDKRPEITLVTNKQVQQPVMDRYQQHGMAPLTQEQKPVAKVVNDNAPQTAKEPDYLDIPAFLRKQAD
notes: also called EcFtsZ; source: E. coli C41(DE3), purified (GTP- and calcium-induced precipitation, anion exchange)
For the protein B1, the binding result is on record as “binds”.
